# Measured values reported in PMC11373624, “Development and preclinical characterization of a novel radiotheranostic EphA2-targeting bicyclic peptide” (Theranostics, 2024).
# Numbered stars: 1 amine (or outer) side, 2 acyl side, 3 side chain; on linkers, the order of the positions; unused ones are H or OH. Bridge positions count the residues as written; N and C are the ends. Square brackets hold non-standard residues; d marks the D form. Peptide text beside a SMILES is read from it. * marks the point of attachment. DOTA = O=C(O)CN1CCN(CC(=O)O)CCN(CC(=O)*)CCN(CC(=O)O)CC1; TATA = O=C(CC[*:1])N1CN(C(=O)CC[*:2])CN(C(=O)CC[*:3])C1; Hyp = O=C(O)[C@@H]1C[C@@H](O)CN1; hArg = N=C(N)NCCCC[C@H](N)C(=O)O; Cba = N[C@@H](CC1CCC1)C(=O)O; βAla = NCCC(=O)O; Sar = CNCC(=O)O
# Legend:
# [1] = tested on: HT1080 cells; test: Cell surface binding and internalization assay; type: cell-based, human
# Procedure: To assess internalization and specificity, HT1080 cells (10^5 cells/well) were seeded in a 24-well plate coated with poly-L-lysine one day before the experiment. […] To determine specific uptake, 'cold' (non-radiolabeled) BCY18469 was added to half of the wells at an excess concentration of 10 µM/well or, alternatively, the cells were kept at 4 °C during the experiment. Following the incubation, the cells were thoroughly rinsed with cold PBS (3 x 1 mL). Subsequently, surface bound radioactivity was removed by washing with 50 mM glycine (pH 2.8, 2 x 500 µL). Finally, the internalized fraction was determined by lysing the cells with 0.5 M NaOH (500 µL). All fractions were collected and measured using a gamma counter (Perkin Elmer Wizard2, Germany). All counts were standardized to the initial activity, and specific surface binding as well as specific internalization were calculated by subtracting the non-specific binding values obtained from the wells treated with an excess of 'cold' compound. Results were calculated and expressed as %AA/10^5 cells (% applied activity/10^5 cells).
# [2] = in vivo; settings: mouse; for tissue to tissue ratio at 1 h / tissue to tissue ratio at 2 h / tissue to tissue ratio at 6 h / tissue to tissue ratio at 24 h: iv, 150 pmol
# From the text: (§1) For the cut and count biodistribution study of [^177Lu]Lu-BCY18469 the HT1080 xenograft model was used. […] (n = 3 mice per time point). Thereafter, mice were dissected, and organs of interest harvested, which included: blood, heart, lung, spleen, liver, kidneys, muscle (quadriceps), intestine, brain, tail, bone (femur) and grafted tumor.
# [3] = tested on: HT1080 tumor xenograft; test: in vivo; settings: mouse
# From the text: as §1
# [4] = 4°C, block with 10 µM non-labeled compound, listed as 177Lu-BCY18469
# [5] = 37°C, 45 min, 30 nM, listed as 177Lu-BCY18469
# [6] = total radioactivity, Tumor-to-blood ratio
# [7] = total radioactivity, Tumor-to-heart ratio
# [8] = total radioactivity, Tumor-to-intestine ratio
# [9] = total radioactivity, Tumor-to-kidneys ratio
# [10] = total radioactivity, Tumor-to-liver ratio
# [11] = total radioactivity, Tumor-to-lung ratio
# [12] = total radioactivity, Tumor-to-muscle ratio
# [13] = total radioactivity, Tumor-to-spleen ratio
# [14] = total radioactivity, Tumor uptake
structure (smiles),measurement,setting,value
"CC(C)C[C@@H]1NC(=O)[C@@H]2CSCCC(=O)N3CN(CN(C3)C(=O)CCSC[C@H](NC(=O)[C@H](CC(=O)O)NC(=O)[C@H](CCCCNC(=N)N)NC(=O)[C@H](C)NC(=O)CN(C)C(=O)CN(C)C(=O)CN(C)C(=O)CN(C)C(=O)CN(C)C(=O)CN(C)C(=O)CN(C)C(=O)CN(C)C(=O)CN(C)C(=O)CN(C)C(=O)CCNC(=O)CN3CCN(CC(=O)O)CCN(CC(=O)O)CCN(CC(=O)O)CC3)C(=O)N3C[C@H](O)C[C@H]3C(=O)N[C@@H](CC3CCC3)C(=O)N[C@@H](C(C)C)C(=O)N[C@@H](CC(N)=O)C(=O)N3CCC[C@H]3C(=O)N[C@@H](CC(C)C)C(=O)N2)C(=O)CCSC[C@@H](C(N)=O)NC(=O)[C@H](CCCCNC(=N)N)NC(=O)[C@H](Cc2c[nH]c3ccccc23)NC(=O)[C@@H](CC(=O)O)NC(=O)[C@@H]2CCCN2C(=O)[C@H](Cc2c[nH]cn2)NC1=O [[177Lu]Lu-BCY18469, metal not drawn] ({DOTA-βAla}-[Sar][Sar][Sar][Sar][Sar][Sar][Sar][Sar][Sar][Sar]A[hArg]DC[Hyp][Cba]VNPLCLHP[dD]W[hArg]C-NH2; linker 14-21-28 via TATA)",Cell Surface B 4°C,[1]; [4],0.05 ± 0.01 %AA/10^5 cells
same,Internalization B 4°C,[1]; [4],0.01 ± 0.01 %AA/10^5 cells
same,Cell Surface 4°C,"[1]; 4°C, listed as 177Lu-BCY18469",0.51 ± 0.01 %AA/10^5 cells
same,Internalization 4°C,"[1]; 4°C, listed as 177Lu-BCY18469",0.06 ± 0.01 %AA/10^5 cells
same,Cell Surface,[1]; [5],0.62 ± 0.03 %AA/10^5 cells
same,Internalization,[1]; [5],0.13 ± 0.01 %AA/10^5 cells
same,Cell Surface B,"[1]; 37°C, block with 10 µM non-labeled compound",0.02 ± 0.01 %AA/10^5 cells
same,Internalization B,"[1]; 37°C, block with 10 µM non-labeled compound, listed as 177Lu-BCY18469",0.01 ± 0.01 %AA/10^5 cells
same,tissue uptake at 1 h,[2]; Blood uptake,0.2 %ID/g
same,tissue uptake at 2 h,[2]; Blood uptake,0.03 %ID/g
same,tissue uptake at 6 h,[2]; Blood uptake,0.02 %ID/g
same,tissue uptake at 24 h,[2]; Blood uptake,0.01 %ID/g
same,tissue uptake at 1 h,[2]; Bone uptake,0.3 %ID/g
same,tissue uptake at 2 h,[2]; Bone uptake,0.21 %ID/g
same,tissue uptake at 6 h,[2]; Bone uptake,0.56 %ID/g
same,tissue uptake at 24 h,[2]; Bone uptake,0.44 %ID/g
same,tissue uptake at 2 h,[2]; Brain uptake,0.01 %ID/g
same,tissue uptake at 6 h,[2]; Brain uptake,0.01 %ID/g
same,tissue uptake at 1 h,[2]; Heart uptake,0.1 %ID/g
same,tissue uptake at 2 h,[2]; Heart uptake,0.03 %ID/g
same,tissue uptake at 6 h,[2]; Heart uptake,0.05 %ID/g
same,tissue uptake at 24 h,[2]; Heart uptake,0.03 %ID/g
same,tissue uptake at 1 h,[2]; Intestine uptake,0.34 %ID/g
same,tissue uptake at 2 h,[2]; Intestine uptake,0.16 %ID/g
same,tissue uptake at 6 h,[2]; Intestine uptake,0.15 %ID/g
same,tissue uptake at 24 h,[2]; Intestine uptake,0.1 %ID/g
same,tissue uptake at 1 h,[2]; Kidneys uptake,65.3 %ID/g
same,tissue uptake at 2 h,[2]; Kidneys uptake,47.2 %ID/g
same,tissue uptake at 6 h,[2]; Kidneys uptake,62.6 %ID/g
same,tissue uptake at 1 h,[2]; Liver uptake,0.25 %ID/g
same,tissue uptake at 2 h,[2]; Liver uptake,0.15 %ID/g
same,tissue uptake at 6 h,[2]; Liver uptake,0.6 %ID/g
same,tissue uptake at 24 h,[2]; Liver uptake,0.53 %ID/g
same,tissue uptake at 1 h,[2]; Lung uptake,0.7 %ID/g
same,tissue uptake at 2 h,[2]; Lung uptake,0.19 %ID/g
same,tissue uptake at 6 h,[2]; Lung uptake,0.28 %ID/g
same,tissue uptake at 24 h,[2]; Lung uptake,0.13 %ID/g
same,tissue uptake at 1 h,[2]; Muscle uptake,0.06 %ID/g
same,tissue uptake at 2 h,[2]; Muscle uptake,0.02 %ID/g
same,tissue uptake at 6 h,[2]; Muscle uptake,0.03 %ID/g
same,tissue uptake at 24 h,[2]; Muscle uptake,0.02 %ID/g
same,tissue uptake at 1 h,[2]; Spleen uptake,0.6 %ID/g
same,tissue uptake at 2 h,[2]; Spleen uptake,0.16 %ID/g
same,tissue uptake at 6 h,[2]; Spleen uptake,0.4 %ID/g
same,tissue uptake at 24 h,[2]; Spleen uptake,0.31 %ID/g
same,tissue uptake at 1 h,[2]; Tail uptake,1.8 %ID/g
same,tissue uptake at 2 h,[2]; Tail uptake,0.7 %ID/g
same,tissue uptake at 6 h,[2]; Tail uptake,0.83 %ID/g
same,tissue uptake at 24 h,[2]; Tail uptake,0.38 %ID/g
same,tissue uptake at 2 h,[2]; Tumor uptake,9.99 %ID/g
same,tissue to tissue ratio at 1 h,[2]; [6],97.5
same,tissue to tissue ratio at 2 h,[2]; [6],333
same,tissue to tissue ratio at 6 h,[2]; [6],278
same,tissue to tissue ratio at 24 h,[2]; [6],177
same,tissue to tissue ratio at 1 h,[2]; [7],195
same,tissue to tissue ratio at 2 h,[2]; [7],333
same,tissue to tissue ratio at 6 h,[2]; [7],111
same,tissue to tissue ratio at 24 h,[2]; [7],59
same,tissue to tissue ratio at 1 h,[2]; [8],57.4
same,tissue to tissue ratio at 2 h,[2]; [8],62.4
same,tissue to tissue ratio at 6 h,[2]; [8],37.1
same,tissue to tissue ratio at 24 h,[2]; [8],17.7
same,tissue to tissue ratio at 1 h,[2]; [9],0.3
same,tissue to tissue ratio at 2 h,[2]; [9],0.21
same,tissue to tissue ratio at 6 h,[2]; [9],0.09
same,tissue to tissue ratio at 24 h,[2]; [9],0.03
same,tissue to tissue ratio at 1 h,[2]; [10],78
same,tissue to tissue ratio at 2 h,[2]; [10],66.6
same,tissue to tissue ratio at 6 h,[2]; [10],9.27
same,tissue to tissue ratio at 24 h,[2]; [10],3.34
same,tissue to tissue ratio at 1 h,[2]; [11],27.9
same,tissue to tissue ratio at 2 h,[2]; [11],52.6
same,tissue to tissue ratio at 6 h,[2]; [11],19.9
same,tissue to tissue ratio at 24 h,[2]; [11],13.6
same,tissue to tissue ratio at 1 h,[2]; [12],325
same,tissue to tissue ratio at 2 h,[2]; [12],500
same,tissue to tissue ratio at 6 h,[2]; [12],185
same,tissue to tissue ratio at 24 h,[2]; [12],88.5
same,tissue to tissue ratio at 1 h,[2]; [13],32.5
same,tissue to tissue ratio at 2 h,[2]; [13],62.4
same,tissue to tissue ratio at 6 h,[2]; [13],13.9
same,tissue to tissue ratio at 24 h,[2]; [13],5.71
same,tissue uptake at 24 h,"[2]; total radioactivity, Kidneys uptake",54.9 ± 17.1 %ID/g
same,tissue uptake,"[2]; total radioactivity, Non-target organs uptake",≤ 1 %ID/g
same,tissue uptake at 1 h,[2]; [14],19.5 ± 3.5 %ID/g
same,tissue uptake at 6 h,[2]; [14],5.56 ± 1.24 %ID/g
same,tissue uptake at 24 h,[2]; [14],1.77 ± 0.51 %ID/g
same,Brain uptake,[3]; 1 h,0 %ID/g
same,Brain uptake,[3]; 24 h,0 %ID/g
same,Tumor-to-muscle ratio,"[3]; iv, 150 pmol, 24 h",88
